According to patent publication US9518103B2, “Optogenetic probes for measuring membrane potential” (President and Fellows of Harvard College, priority 2014, dated 2016):
Like-named read-outs stand apart in the source and are kept apart here.

Tests used:
[1] = Quantum yield of solubilized protein (Cy5 reference); format: physicochemical; conditions: excitation at 600 nm
Protocol: Solubilization and spectroscopic characterization of QuasAr1 and QuasAr: E. coli expressing QuasAr1 and QuasAr2 were grown in 12 mL LB medium with 200 μg/ml ampicillin overnight. The next day, 12 mL of liquid LB medium containing 50 μM retinal, 200 μg/ml ampicillin and 0.1% arabinose was added into the overnight culture, followed by additional incubation at 37° C. for 4 hours. The cell pellets were collected by centrifugation and lysed by suspension in B-PER solution (Pierce). The cytoplasmic fraction was discarded after centrifugation and the colored insoluble fraction was resuspended in phosphate buffered saline (PBS) containing 1.5% n-dodecyl-β-D-maltopyranoside (Affymetrix, Inc.). The suspension was homogenized by an ultrasonic homogenizer and centrifuged (17,000 g for 15 mins, 4° C.). The solubilized protein in the supernatant was used for in vitro spectroscopic characterization.
Absorption spectra were recorded on a DU-800 UV-visible spectrophotometer (Beckman) and fluorescence spectra were recorded on a Safire2 plate reader (Tecan). Cy5 carboxylic acid (Cyandye) was used as the reference for quantum yield measurement. Quantum yield measurements were performed on a series of dilutions of each protein solution and standard, with absorbance values ranging from 0.01 to 0.05 at 600 nm. The fluorescence emission spectra of each dilution were recorded with excitation at 600 nm and the total fluorescence intensities obtained by integration. Integrated fluorescence intensity vs. absorbance was plotted for each protein and each standard. Quantum yields, Φ, were determined from the slopes (S) of each line using the equation: Φprotein=Φstandard×(Sprotein/Sstandard).

HEK293T cells = assay: Simultaneous whole-cell patch clamp electrophysiology and fluorescence in HEK cells (brightness, voltage sensitivity, speed); format: cell-based; conditions: for voltage sensitivity (ΔF/F per 100 mV): HEK cells
Protocol: Simultaneous electrophysiology and fluorescence in HEK cells: HEK293T cells (ATCC CRL-11268) were cultured and transfected following standard protocols.^10 Briefly, HEK-293 cells were grown at 37° C., 5% CO2, in DMEM supplemented with 10% FBS and penicillin-streptomycin. Plasmids were transfected using Transit 293T (Mirus) following the manufacturer's instructions, and assayed 48 hours later. The day before recording, cells were re-plated onto glass-bottom dishes (MatTek) at a density of ˜10,000 cells/cm^2.
Cells were supplemented with retinal by diluting stock retinal solutions (40 mM, DMSO) in growth medium to a final concentration of 5 μM, and then returning the cells to the incubator for 0.5-1 hour. All imaging and electrophysiology were performed in Tyrode buffer (containing, in mM: 125 NaCl, 2.5 KCl, 3 CaCl2, 1 MgCl2, 10 HEPES, 30 glucose pH 7.3, and adjusted to 305-310 mOsm with sucrose). A gap junction blocker, 2-aminoethoxydiphenyl borate (50 μM, Sigma), was added to eliminate electrical coupling between cells.
Filamented glass micropipettes (WPI) were pulled to a tip resistance of 5-10 MΩ, and filled with internal solution containing 125 mM potassium gluconate, 8 mM NaCl, 0.6 mM MgCl2, 0.1 mM CaCl2, 1 mM EGTA, 10 mM HEPES, 4 mM Mg-ATP, 0.4 mM Na-GTP (pH 7.3); adjusted to 295 mOsm with sucrose. Pipettes were positioned with a Sutter MP285 manipulator. Whole-cell, voltage and current clamp recordings were acquired using an […] 700B amplifier (Molecular Devices), filtered at 2 kHz with the internal Bessel filter and digitized with a National Instruments PCIE-6323 acquisition board at 5-10 kHz. Data was only acquired from HEK cells having reversal potentials between −10 and −40 mV, access resistance<25 MΩ and membrane resistance>0.5 GΩ.
Simultaneous whole-cell patch clamp recordings and fluorescence recordings were acquired on a home-built, inverted epifluorescence microscope, described previously^10 and described below in “Apparatus”. For step response measurements, voltage clamp electronics were compensated 90-95%. We examined variants of QuasAr1 with mutations at position 95 (Asn, Cys, Gin, His and Tyr) and position 106 (Arg, Asp, Asn, Cys, Glu, His, Lys and Tyr). These experiments confirmed that histidine at position 106 provided undetectable photocurrent, and the best combination of improved voltage sensitivity, and fast kinetics.
We compared the fluorescence, voltage sensitivity, and speed of the QuasArs to wild-type Arch in HEK cells, using epifluorescence microscopy and whole-cell patch clamp electrophysiology. Under low intensity illumination (640 nm, 500 mW/cm^2), QuasAr1 was 15-fold brighter than wild-type Arch, and QuasAr2 was 3.3-fold brighter (FIG. 1B; Methods).

[2] = earlier work, cited from earlier work
[3] = system: cultured rat hippocampal neurons; assay: Photocurrent in cultured rat hippocampal neurons; format: cell-based
Protocol: FIGS. 4A-4B show the photophysics of QuasArs in mammalian cells. […] Steady state photocurrents were calculated by averaging the current over the last 0.25 seconds of light exposure and subtracting the holding current (cells held at −65 mV) in the dark. These currents hyperpolarized cells by 25±4 mV and 19±3 mV, respectively. […] The double mutants had mutations at the locations of the proton acceptor (Asp95) and proton donor (Asp106) to the Schiff base. QuasAr1 includes mutations D95H, D106H, and QuasAr2 includes mutations D95Q, D106H. The three additional backbone mutations in the QuasArs (P60S, T80S, F161V) increased brightness relative to the double mutants, Fluorescence of each Arch mutant was measured with excitation at 640 nm and emission from 660-760 nm. To control for variation in expression level, fluorescence was normalized by eGFP fluorescence (λexc=488 nm, λem=510−550 nm). Error bars represent s.e.m. for measurements on n=5-10 cells.
Measurements were performed on primary cultures at 13-15 DIV. Experiments were conducted in Tyrode's solution containing 125 mM NaCl, 2.5 mM KCl, 3 mM CaCl2, 1 mM MgCl2, 10 mM HEPES, 30 mM glucose (pH 7.3) and adjusted to 305-310 mOsm with sucrose. Prior to imaging, neurons were incubated with 5 μM all-trans retinal for 30 minutes and then washed with Tyrode's solution.
Synaptic blockers were added to the imaging medium for measurements of single-cell electrophysiology (Arch photocurrents, and single-cell excitability). The blockers comprised NBQX (10 μM, Tocris), D(−)-2-amino-5-phosphonovaleric acid (APS; […]), and gabazine (SR-95531, 20 μM, Tocris). For measurements of channel rhodopsin photocurrents in neurons, TTX (1 μM, Tocris) was included along with the synaptic blockers to prevent recruitment of voltage gated sodium channels. […] Recordings were terminated if membrane resistance changed by >10%. Experiments were performed at 23° C. under ambient atmosphere unless otherwise noted.

[4] = blue illumination (488 nm, 500 mW/cm^2)
[5] = red illumination (640 nm, 300 W/cm^2)

B1: Arch D95N: Archaerhodopsin 3 D95N mutant, non-pumping voltage indicator of US 2013/0224756 (protein)
chain: MDPIALQAGYDLLGDGRPETLWLGIGTLLMLIGTFYFLVRGWGVTDKDAREYYAVTILVPGIASAAYLSMFFGIGLTEVTVGGEMLDIYYARYANWLFTTPLLLLDLALLAKVDRVTIGTLVGVDALMIVTGLIGALSHTAIARYSWWLFSTICMIVVLYFLATSLRSAAKERGPEVASTFNTLTALVLVLWTAYPILWIIGTEGAGVVGLGIETLLFMVLDVTAKVGFGFILLRSRAILGDTEAPEPSAGADVSAAD
Quantum yield [1]: 4 × 10^−4
Quantum yield relative to Arch D95N [1]: 1
voltage sensitivity (ΔF/F per 100 mV) (HEK293T cells): 60%
step response / response time [2]: 41 ms
step response / response time ([2]; listed as Arch 3 D95N): 40 ms

B2: Arch(WT): wild-type Archaerhodopsin 3, light-driven proton pump from Halobacterium sodomense (protein)
chain: MDPIALQAGYDLLGDGRPETLWLGIGTLLMLIGTFYFLVRGWGVTDKDAREYYAVTILVPGIASAAYLSMFFGIGLTEVTVGGEMLDIYYARYADWLFTTPLLLLDLALLAKVDRVTIGTLVGVDALMIVTGLIGALSHTAIARYSWWLFSTICMIVVLYFLATSLRSAAKERGPEVASTFNTLTALVLVLWTAYPILWIIGTEGAGVVGLGIETLLFMVLDVTAKVGFGFILLRSRAILGDTEAPEPSAGADVSAAD
modifications: Halobacterium sodomense
notes: wild-type Archaerhodopsin 3, light-driven proton pump from Halobacterium sodomense
Quantum yield [1]: *Due to the low light intensities used to determine QYs, fluorescence from Arch was not detected above baseline.
voltage sensitivity compared with QuasAr2 (HEK293T cells): three-fold less than the sensitivity of QuasAr2
τdown (+30 mV to −70 mV) % τ1 (HEK293T cells; 23° C.): 67%
τdown (+30 mV to −70 mV) τ1 (HEK293T cells; 23° C.): 0.25 ms
τdown (+30 mV to −70 mV) τ2 (HEK293T cells; 23° C.): 1.9 ms
τup (−70 mV to +30 mV) τ1 (HEK293T cells; 23° C.): 0.6 ms
Brightness (λexc = 640 nm) 0.7 W/cm^2 (HEK293T cells; 23° C., HEK293 cells): 1
Brightness (λexc = 640 nm) 800 W/cm^2 (HEK293T cells; 23° C., HEK293 cells): 4.0
Sensitivity (ΔF/F per 100 mV) (HEK293T cells; 23° C., HEK293 cells): 40%
voltage sensitivity (ΔF/F per 100 mV) (HEK293T cells): 40%
hyperpolarization of cells by photocurrent [3, 4]: 19±3 mV
photocurrent [3, 4]: 140±25 pA
hyperpolarization of cells by photocurrent [3, 5]: 25±4 mV
photocurrent [3, 5]: 220±30 pA
step response / response time [2]: 0.6 ms

B3: Arch D95H/D106H/P60S: Arch triple mutant D95H, D106H, P60S (protein)
chain: MDPIALQAGYDLLGDGRPETLWLGIGTLLMLIGTFYFLVRGWGVTDKDAREYYAVTILVSGIASAAYLSMFFGIGLTEVTVGGEMLDIYYARYAHWLFTTPLLLLHLALLAKVDRVTIGTLVGVDALMIVTGLIGALSHTAIARYSWWLFSTICMIVVLYFLATSLRSAAKERGPEVASTFNTLTALVLVLWTAYPILWIIGTEGAGVVGLGIETLLFMVLDVTAKVGFGFILLRSRAILGDTEAPEPSAGADVSAAD
Quantum yield [1]: 5 × 10^−3
Quantum yield relative to Arch D95N [1]: 12

B4: Arch D95H/D106H: Arch double mutant D95H, D106H (protein)
chain: MDPIALQAGYDLLGDGRPETLWLGIGTLLMLIGTFYFLVRGWGVTDKDAREYYAVTILVPGIASAAYLSMFFGIGLTEVTVGGEMLDIYYARYAHWLFTTPLLLLHLALLAKVDRVTIGTLVGVDALMIVTGLIGALSHTAIARYSWWLFSTICMIVVLYFLATSLRSAAKERGPEVASTFNTLTALVLVLWTAYPILWIIGTEGAGVVGLGIETLLFMVLDVTAKVGFGFILLRSRAILGDTEAPEPSAGADVSAAD
Quantum yield [1]: 2 × 10^−3
Quantum yield relative to Arch D95N [1]: 4.2
voltage sensitivity compared with QuasAr2 (HEK293T cells): three-fold less than the sensitivity of QuasAr2

B5: Arch D95H/D106H/F161V: Arch triple mutant D95H, D106H, F161V (protein)
chain: MDPIALQAGYDLLGDGRPETLWLGIGTLLMLIGTFYFLVRGWGVTDKDAREYYAVTILVPGIASAAYLSMFFGIGLTEVTVGGEMLDIYYARYAHWLFTTPLLLLHLALLAKVDRVTIGTLVGVDALMIVTGLIGALSHTAIARYSWWLFSTICMIVVLYVLATSLRSAAKERGPEVASTFNTLTALVLVLWTAYPILWIIGTEGAGVVGLGIETLLFMVLDVTAKVGFGFILLRSRAILGDTEAPEPSAGADVSAAD
Quantum yield [1]: 5 × 10^−3
Quantum yield relative to Arch D95N [1]: 13
